Test results published in US20200131274A1 (CRESCENDO BIOLOGICS, published 2020).

Target: cynomolgus PSMA, full-length, on CHO cells (cynomolgus, UniProt A0A2K5VNZ0 1-750)
Experiment: cell-based or functional assay

Binder	His-ZAP cell killing, cyno PSMA Average EC50 [nM]
1.1-6GS-2.1 (bispecific antibody) EVQLLESGGGLVQPGGSLRLSCAASGFSFSSYAMSWVRQAPGKGLEWVSSIGENDGTTDYADSVKGRFTISRDNSKSMLYLQMNSLRVEDTAVYYCVKDGVHWGQGTLVTVSSGGGGSGGGGSGGGGSGGGGSGGGGSGGGGSEVQLVESGGGVVQPGRSLRLSCAASGFSFSGYGMHWVRQAPGKGLEWVAYISYDGSNKYYADSVKGRFTISRDNSKNTLYLQMNSLRAEDTAVYYCAKDPAWGLRLGESSSYDFDIWGQGTMVTVSS	0.012
1.1-6GS-2.17 (bispecific antibody) EVQLLESGGGLVQPGGSLRLSCAASGFSFSSYAMSWVRQAPGKGLEWVSSIGENDGTTDYADSVKGRFTISRDNSKSMLYLQMNSLRVEDTAVYYCVKDGVHWGQGTLVTVSSGGGGSGGGGSGGGGSGGGGSGGGGSGGGGSEVQLVESGGGVVQPGRSLRLSCAASGFSFSGYGMHWVRQAPGKGLEWVAYISYDASNKYYADNVKGRFTISRDNSKNTLYLQMNSLRAEDTAVYYCAKDPAWGLRLGESSSYDFDIWGQGTMVTVSS	0.011
1.1-6GS-2.22 (bispecific antibody) EVQLLESGGGLVQPGGSLRLSCAASGFSFSSYAMSWVRQAPGKGLEWVSSIGENDGTTDYADSVKGRFTISRDNSKSMLYLQMNSLRVEDTAVYYCVKDGVHWGQGTLVTVSSGGGGSGGGGSGGGGSGGGGSGGGGSGGGGSEVQLVESGGGVVQPGRSLRLSCAASGFSFSGYGTHWVRQAPGKGLEWVAYISYDGSNKYYAAPVKGRFTISRDNSKNTLYLQMNSLRAEDTAVYYCAKDAAWGLRLGESSSYDFDIWGQGTMVTVSS	0.0078
1.16-6GS-2.15 (bispecific antibody) EVQLLESGGGLVQPGGSLRLSCAASGFSFSSYALSWVRQAPGKGLEWVSSIGENNHTTDYADTVKGRFTISRDNSKNTLYLQMNSLRVEDTAVYYCVKDGVHWGQGTLVTVSSGGGGSGGGGSGGGGSGGGGSGGGGSGGGGSEVQLVESGGGVVQPGRSLRLSCAASGFSFSGYGLHWVRQAPGKGLEWVAYISYDKSNKYYADKVKGRFTISRDNSKNTLYLQMNSLRAEDTAVYYCAKDPAWGLRLGESSSYDFDIWGQGTMVTVSS	0.011
1.11-6GS-2.15 (bispecific antibody) EVQLLESGGGLVQPGGSLRLSCAASGFSFSSYALSWVRQAPGKGLEWVSSIGENNDTTDYADNVKGRFTISRDNSKNTLYLQMNSLRVEDTAVYYCVKDGVHWGQGTLVTVSSGGGGSGGGGSGGGGSGGGGSGGGGSGGGGSEVQLVESGGGVVQPGRSLRLSCAASGFSFSGYGLHWVRQAPGKGLEWVAYISYDKSNKYYADKVKGRFTISRDNSKNTLYLQMNSLRAEDTAVYYCAKDPAWGLRLGESSSYDFDIWGQGTMVTVSS	0.009
1.18-6GS-2.15 (bispecific antibody) EVQLLESGGGLVQPGGSLRLSCAASGFSFSSYALSWVRQAPGKGLEWVSSIGENNATTDYAASVKGRFTISRDNSKNTLYLQMNSLRVEDTAVYYCVKDGVHWGQGTLVTVSSGGGGSGGGGSGGGGSGGGGSGGGGSGGGGSEVQLVESGGGVVQPGRSLRLSCAASGFSFSGYGLHWVRQAPGKGLEWVAYISYDKSNKYYADKVKGRFTISRDNSKNTLYLQMNSLRAEDTAVYYCAKDPAWGLRLGESSSYDFDIWGQGTMVTVSS	0.01
1.1-6GS-2.15 (bispecific antibody) EVQLLESGGGLVQPGGSLRLSCAASGFSFSSYAMSWVRQAPGKGLEWVSSIGENDGTTDYADSVKGRFTISRDNSKSMLYLQMNSLRVEDTAVYYCVKDGVHWGQGTLVTVSSGGGGSGGGGSGGGGSGGGGSGGGGSGGGGSEVQLVESGGGVVQPGRSLRLSCAASGFSFSGYGLHWVRQAPGKGLEWVAYISYDKSNKYYADKVKGRFTISRDNSKNTLYLQMNSLRAEDTAVYYCAKDPAWGLRLGESSSYDFDIWGQGTMVTVSS	0.0086

Target: T1, human prostate specific membrane antigen (PSMA), full-length, on cells (human, UniProt Q04609 1-750)
Experiment: cell-based or functional assay

T1 sequence (Q04609 whole entry): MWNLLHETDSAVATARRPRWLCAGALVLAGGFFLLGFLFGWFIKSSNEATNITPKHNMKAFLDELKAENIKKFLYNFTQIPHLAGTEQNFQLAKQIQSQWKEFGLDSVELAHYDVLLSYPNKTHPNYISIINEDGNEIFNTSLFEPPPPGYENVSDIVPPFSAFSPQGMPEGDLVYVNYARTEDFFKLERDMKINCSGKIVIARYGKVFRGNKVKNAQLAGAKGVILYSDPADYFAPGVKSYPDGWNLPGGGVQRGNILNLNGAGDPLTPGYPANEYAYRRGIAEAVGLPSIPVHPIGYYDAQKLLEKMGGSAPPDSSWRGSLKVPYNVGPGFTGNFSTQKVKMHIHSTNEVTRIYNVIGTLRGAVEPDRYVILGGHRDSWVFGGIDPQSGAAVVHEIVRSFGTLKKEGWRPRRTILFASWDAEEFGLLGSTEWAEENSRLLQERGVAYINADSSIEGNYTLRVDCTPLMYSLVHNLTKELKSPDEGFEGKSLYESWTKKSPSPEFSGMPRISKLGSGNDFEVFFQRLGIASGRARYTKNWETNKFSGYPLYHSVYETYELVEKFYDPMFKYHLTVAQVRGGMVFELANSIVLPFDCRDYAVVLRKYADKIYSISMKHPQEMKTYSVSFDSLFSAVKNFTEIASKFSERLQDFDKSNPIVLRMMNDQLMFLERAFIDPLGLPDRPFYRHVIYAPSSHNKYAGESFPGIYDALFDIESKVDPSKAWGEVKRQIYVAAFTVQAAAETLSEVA

Binder	IC50 Toxin (nM), DU145 PSMA cells, 48 h [nM]	Mean IC50, cytotoxicity on DU145 PSMA cells, 48 h [nM]	Mean Max % Cell kill, DU145 PSMA cells, 48 h [%]
HiPEG C-His6 val-cit-PAB-MMAE (VHH, HiPEG val-cit-PAB-MMAE attached via the C-terminal His6-tag, DAR 1) VHH: EVQLVESGGGVVQPGRSLRLSCAASGFPLISYGMHWVRQAPGKGLEWVAFMTYDGSNRYYADSVKGRFTISRDNSKNTLYLQMNSLRDEDTALYYCARDRIVGGRVPDAFDIWGQGTMVTVSS	5.21	5.2	59
HiPEG C-2-C-His6 val-cit-PAB-MMAE (VHH, HiPEG val-cit-PAB-MMAE attached via the C-terminal His6-tag, DAR 1) EVQLVESGGGVVQPGRSLRLSCAASGFPLISYGMHWVRQAPGKGLEWVAFMTYDGSNRYYADSVKGRFTISRDNSKNTLYLQMNSLRDEDTALYYCARDRIVGGRVPDAFDIWGQGTMVTVSSGGGGSGGGGSGGGGSGGGGSGGGGSGGGGSEVQLVESGGGVVQPGRSLRLSCAASGFPLISYGMHWVRQAPGKGLEWVAFMTYDGSNRYYADSVKGRFTISRDNSKNTLYLQMNSLRDEDTALYYCARDRIVGGRVPDAFDIWGQGTMVTVSS	4.54	4.5	69
HiPEG A-1-B-His6 val-cit-PAB-MMAE (bispecific antibody, HiPEG val-cit-PAB-MMAE attached via the C-terminal His6-tag, DAR 1) EVQLVESGGGVVQPGRSLRLSCAASGFSFSGYGMHWVRQAPGKGLEWVAYISYDGSNKYYADSVKGRFTISRDNSKNTLYLQMNSLRAEDTAVYYCAKDPAWGLRLGESSSYDFDIWGQGTMVTVSSGGGGSGGGGSEVQLLESGGGLVQPGGSLRLSCAASGFSFSSYAMSWVRQAPGKGLEWVSSIGENDGTTDYADSVKGRFTISRDNSKSMLYLQMNSLRVEDTAVYYCVKDGVHWGQGTLVTVSS	0.67	0.67	75
HiPEG A-2-A-His6 val-cit-PAB-MMAE (VHH, HiPEG val-cit-PAB-MMAE attached via the C-terminal His6-tag, DAR 1) EVQLVESGGGVVQPGRSLRLSCAASGFSFSGYGMHWVRQAPGKGLEWVAYISYDGSNKYYADSVKGRFTISRDNSKNTLYLQMNSLRAEDTAVYYCAKDPAWGLRLGESSSYDFDIWGQGTMVTVSSGGGGSGGGGSGGGGSGGGGSGGGGSGGGGSEVQLVESGGGVVQPGRSLRLSCAASGFSFSGYGMHWVRQAPGKGLEWVAYISYDGSNKYYADSVKGRFTISRDNSKNTLYLQMNSLRAEDTAVYYCAKDPAWGLRLGESSSYDFDIWGQGTMVTVSSAAAHHHHHH	0.32	0.32	57
HiPEG A-2-B-His6 val-cit-PAB-MMAE (bispecific antibody, HiPEG val-cit-PAB-MMAE attached via the C-terminal His6-tag, DAR 1) EVQLVESGGGVVQPGRSLRLSCAASGFSFSGYGMHWVRQAPGKGLEWVAYISYDGSNKYYADSVKGRFTISRDNSKNTLYLQMNSLRAEDTAVYYCAKDPAWGLRLGESSSYDFDIWGQGTMVTVSSGGGGSGGGGSGGGGSGGGGSGGGGSGGGGSEVQLLESGGGLVQPGGSLRLSCAASGFSFSSYAMSWVRQAPGKGLEWVSSIGENDGTTDYADSVKGRFTISRDNSKSMLYLQMNSLRVEDTAVYYCVKDGVHWGQGTLVTVSSAAAHHHHHH	0.37	0.37	78
HiPEG B-2-B-His6 val-cit-PAB-MMAE (VHH, HiPEG val-cit-PAB-MMAE attached via the C-terminal His6-tag, DAR 0.7) EVQLLESGGGLVQPGGSLRLSCAASGFSFSSYAMSWVRQAPGKGLEWVSSIGENDGTTDYADSVKGRFTISRDNSKSMLYLQMNSLRVEDTAVYYCVKDGVHWGQGTLVTVSSGGGGSGGGGSGGGGSGGGGSGGGGSGGGGSEVQLLESGGGLVQPGGSLRLSCAASGFSFSSYAMSWVRQAPGKGLEWVSSIGENDGTTDYADSVKGRFTISRDNSKSMLYLQMNSLRVEDTAVYYCVKDGVHWGQGTLVTVSS	12.6	18	

Target: T1, human prostate specific membrane …
Experiment: cell-based or functional assay
Remark: another data set of the same source

Binder	IC50 (nM), cytotoxicity on DU145 PSMA cells, 72 h [nM]	IC50 (toxin) nM, DU145 PSMA cells, 72 h [nM]
HiPEG A-2-A-His6 val-cit-PAB-MMAE (VHH, HiPEG val-cit-PAB-MMAE attached via the C-terminal His6-tag, DAR 1) EVQLVESGGGVVQPGRSLRLSCAASGFSFSGYGMHWVRQAPGKGLEWVAYISYDGSNKYYADSVKGRFTISRDNSKNTLYLQMNSLRAEDTAVYYCAKDPAWGLRLGESSSYDFDIWGQGTMVTVSSGGGGSGGGGSGGGGSGGGGSGGGGSGGGGSEVQLVESGGGVVQPGRSLRLSCAASGFSFSGYGMHWVRQAPGKGLEWVAYISYDGSNKYYADSVKGRFTISRDNSKNTLYLQMNSLRAEDTAVYYCAKDPAWGLRLGESSSYDFDIWGQGTMVTVSSAAAHHHHHH	0.19	0.19
HiPEG A-2-B-His6 val-cit-PAB-MMAE (bispecific antibody, HiPEG val-cit-PAB-MMAE attached via the C-terminal His6-tag, DAR 1) EVQLVESGGGVVQPGRSLRLSCAASGFSFSGYGMHWVRQAPGKGLEWVAYISYDGSNKYYADSVKGRFTISRDNSKNTLYLQMNSLRAEDTAVYYCAKDPAWGLRLGESSSYDFDIWGQGTMVTVSSGGGGSGGGGSGGGGSGGGGSGGGGSGGGGSEVQLLESGGGLVQPGGSLRLSCAASGFSFSSYAMSWVRQAPGKGLEWVSSIGENDGTTDYADSVKGRFTISRDNSKSMLYLQMNSLRVEDTAVYYCVKDGVHWGQGTLVTVSSAAAHHHHHH	0.29	0.29
HiPEG B-2-B-His6 val-cit-PAB-MMAE (VHH, HiPEG val-cit-PAB-MMAE attached via the C-terminal His6-tag, DAR 0.7) EVQLLESGGGLVQPGGSLRLSCAASGFSFSSYAMSWVRQAPGKGLEWVSSIGENDGTTDYADSVKGRFTISRDNSKSMLYLQMNSLRVEDTAVYYCVKDGVHWGQGTLVTVSSGGGGSGGGGSGGGGSGGGGSGGGGSGGGGSEVQLLESGGGLVQPGGSLRLSCAASGFSFSSYAMSWVRQAPGKGLEWVSSIGENDGTTDYADSVKGRFTISRDNSKSMLYLQMNSLRVEDTAVYYCVKDGVHWGQGTLVTVSS	21	14.7

Target: T2, recombinant human PSMA (R&D, cat. no. 4234-ZN) (human, UniProt Q04609 44-750)
T2 construct: Bought protein; also called rhPSMA; Recombinant PMSA
Experiment: Octet RED384 BLI, PSMA on sensor, VH purified from periplasmic extracts

T2 sequence (Q04609 44-750 limits assumed): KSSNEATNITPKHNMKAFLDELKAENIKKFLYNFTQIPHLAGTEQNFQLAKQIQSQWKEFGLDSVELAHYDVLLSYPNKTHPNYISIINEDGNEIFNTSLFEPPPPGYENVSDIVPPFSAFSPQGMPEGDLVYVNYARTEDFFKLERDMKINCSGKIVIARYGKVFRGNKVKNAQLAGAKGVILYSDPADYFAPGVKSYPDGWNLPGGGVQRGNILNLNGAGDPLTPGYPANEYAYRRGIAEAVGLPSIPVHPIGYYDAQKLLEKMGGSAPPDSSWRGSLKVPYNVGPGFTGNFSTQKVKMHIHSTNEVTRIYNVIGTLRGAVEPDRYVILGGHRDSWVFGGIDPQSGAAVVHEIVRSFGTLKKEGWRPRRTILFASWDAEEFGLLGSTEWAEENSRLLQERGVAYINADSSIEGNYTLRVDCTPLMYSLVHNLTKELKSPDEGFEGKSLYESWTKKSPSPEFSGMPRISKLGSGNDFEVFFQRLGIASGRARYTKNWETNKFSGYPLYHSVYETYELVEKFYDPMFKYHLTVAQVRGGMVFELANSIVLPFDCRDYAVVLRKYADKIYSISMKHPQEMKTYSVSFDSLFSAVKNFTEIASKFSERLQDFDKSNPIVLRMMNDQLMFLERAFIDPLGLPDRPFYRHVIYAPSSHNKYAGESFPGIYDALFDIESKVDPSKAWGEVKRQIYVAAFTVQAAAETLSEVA

Binder	Kd [nM]	koff [s⁻¹]
single VH domain antibody 14.1 (VHH) VHH: EVQLVESGGEVKKPGASVKVSCKASGYTFTSYDINWVRQATGQGLEWMGWMNPNSGNTGYAQKFQGRVTMTRNTSISTAYMELSSLRSEDTAVYYCARGNGPGITGTTDYWGQGTLVTVSS	17	0.0011
single VH domain antibody 12.1 (VHH, Human single VH domain antibody (Humabody); purified via the C-terminal His-tag, residues not tied) VHH: QVQLVESGGGVVQPGRSLRLSCAASGFTFSNFGMHWARQAPGKGLEWVAVISYDGNSKYYADTVKGRFTISRDNSKNTLYLEMNSLRADDTAVYYCAKGLWPPMDVRGQGTTVTVSS	3.9	0.00137
single VH domain antibody 13.1 (VHH, Human single VH domain antibody (Humabody); purified via the C-terminal His-tag, residues not tied) VHH: EVQLVESGGGSVQPGGSLRLSCAASGFTFSDYWMTWVRQVPGKGLEWVANIKQDGSEKYYVDSVKGRFTISRDNAKNSLYLQMNSLRAEDTAVYYCARDRGGAVALYHNGMDMGGQGTTVTVSS	4.2	0.0006
single VH domain antibody 11.1 (VHH, Human single VH domain antibody (Humabody); purified via the C-terminal His-tag, residues not tied) VHH: EVQLVESGGGLVKPGGSLRLSCAASGFNLISYGMYWVRQAPGKGLEWVAVISYDGSNKNYADSVKGRFTISRDNSKNTLFLQMNSLRVEDTAVYYCAKGGNALYSSGWPDDGFDIRGQGTMVTVSS	26	0.00149
single VH domain antibody 6.1 (VHH, Human single VH domain antibody (Humabody); purified via the C-terminal His-tag, residues not tied) VHH: QVQLQESGPGLVKPSQTLSLTCTVSGGSISNSGYYWSWVRQHPGKDLEWIGFIYYNGSIHYNPSLKSRVIISVDTSKNQFSLKMNSVTAADTAVYYCARDGDDYGDYLRGQGTLVTVSS	16	0.00365
single VH domain antibody 10.1 (VHH, Human single VH domain antibody (Humabody); purified via the C-terminal His-tag, residues not tied) VHH: QVQLVESGGGLVQPGGSLRLSCAASGFTFSSYGMHWVRQAPGKGLEWVAFMSYDGSNKYYVDSVKGRFTISRDNSKNTLYLQMNSLRAEDTAVYYCAKGDYDFWSGYPDYDMDVWGQGTTVTVSS	95	0.00185
single VH domain antibody 4.1 (VHH, Human single VH domain antibody (Humabody); purified via the C-terminal His-tag, residues not tied) VHH: QVQLVESGGGVVQPGRSLRLSCVASGFPFISYGMHWVRQAPGKGREWVAVISYDGSNRYYADSVKGRFTISRDNSKNTLYLQMNSLRPEDTAVYYCAKERIFGVLTPDDFDIWGQGTTVTVSS	45	0.014
